Laboratory results taken from PMC4833857.

Target: Kluyveromyces marxianus Tor (KmTor), full-length (Kluyveromyces marxianus)
Experiment: SEC-MALS; 100 µl of 1 mg/ml KmTor-Lst8 complex on Superdex S200 10/300, 50 mM Tris pH 8.8 (23 °C), 300 mM NaCl, 0.3% CHAPS, 1 mM TCEP

Chain of Kluyveromyces marxianus Tor (KmTor), full-length (Kluyveromyces marxianus) (main, as listed by the source): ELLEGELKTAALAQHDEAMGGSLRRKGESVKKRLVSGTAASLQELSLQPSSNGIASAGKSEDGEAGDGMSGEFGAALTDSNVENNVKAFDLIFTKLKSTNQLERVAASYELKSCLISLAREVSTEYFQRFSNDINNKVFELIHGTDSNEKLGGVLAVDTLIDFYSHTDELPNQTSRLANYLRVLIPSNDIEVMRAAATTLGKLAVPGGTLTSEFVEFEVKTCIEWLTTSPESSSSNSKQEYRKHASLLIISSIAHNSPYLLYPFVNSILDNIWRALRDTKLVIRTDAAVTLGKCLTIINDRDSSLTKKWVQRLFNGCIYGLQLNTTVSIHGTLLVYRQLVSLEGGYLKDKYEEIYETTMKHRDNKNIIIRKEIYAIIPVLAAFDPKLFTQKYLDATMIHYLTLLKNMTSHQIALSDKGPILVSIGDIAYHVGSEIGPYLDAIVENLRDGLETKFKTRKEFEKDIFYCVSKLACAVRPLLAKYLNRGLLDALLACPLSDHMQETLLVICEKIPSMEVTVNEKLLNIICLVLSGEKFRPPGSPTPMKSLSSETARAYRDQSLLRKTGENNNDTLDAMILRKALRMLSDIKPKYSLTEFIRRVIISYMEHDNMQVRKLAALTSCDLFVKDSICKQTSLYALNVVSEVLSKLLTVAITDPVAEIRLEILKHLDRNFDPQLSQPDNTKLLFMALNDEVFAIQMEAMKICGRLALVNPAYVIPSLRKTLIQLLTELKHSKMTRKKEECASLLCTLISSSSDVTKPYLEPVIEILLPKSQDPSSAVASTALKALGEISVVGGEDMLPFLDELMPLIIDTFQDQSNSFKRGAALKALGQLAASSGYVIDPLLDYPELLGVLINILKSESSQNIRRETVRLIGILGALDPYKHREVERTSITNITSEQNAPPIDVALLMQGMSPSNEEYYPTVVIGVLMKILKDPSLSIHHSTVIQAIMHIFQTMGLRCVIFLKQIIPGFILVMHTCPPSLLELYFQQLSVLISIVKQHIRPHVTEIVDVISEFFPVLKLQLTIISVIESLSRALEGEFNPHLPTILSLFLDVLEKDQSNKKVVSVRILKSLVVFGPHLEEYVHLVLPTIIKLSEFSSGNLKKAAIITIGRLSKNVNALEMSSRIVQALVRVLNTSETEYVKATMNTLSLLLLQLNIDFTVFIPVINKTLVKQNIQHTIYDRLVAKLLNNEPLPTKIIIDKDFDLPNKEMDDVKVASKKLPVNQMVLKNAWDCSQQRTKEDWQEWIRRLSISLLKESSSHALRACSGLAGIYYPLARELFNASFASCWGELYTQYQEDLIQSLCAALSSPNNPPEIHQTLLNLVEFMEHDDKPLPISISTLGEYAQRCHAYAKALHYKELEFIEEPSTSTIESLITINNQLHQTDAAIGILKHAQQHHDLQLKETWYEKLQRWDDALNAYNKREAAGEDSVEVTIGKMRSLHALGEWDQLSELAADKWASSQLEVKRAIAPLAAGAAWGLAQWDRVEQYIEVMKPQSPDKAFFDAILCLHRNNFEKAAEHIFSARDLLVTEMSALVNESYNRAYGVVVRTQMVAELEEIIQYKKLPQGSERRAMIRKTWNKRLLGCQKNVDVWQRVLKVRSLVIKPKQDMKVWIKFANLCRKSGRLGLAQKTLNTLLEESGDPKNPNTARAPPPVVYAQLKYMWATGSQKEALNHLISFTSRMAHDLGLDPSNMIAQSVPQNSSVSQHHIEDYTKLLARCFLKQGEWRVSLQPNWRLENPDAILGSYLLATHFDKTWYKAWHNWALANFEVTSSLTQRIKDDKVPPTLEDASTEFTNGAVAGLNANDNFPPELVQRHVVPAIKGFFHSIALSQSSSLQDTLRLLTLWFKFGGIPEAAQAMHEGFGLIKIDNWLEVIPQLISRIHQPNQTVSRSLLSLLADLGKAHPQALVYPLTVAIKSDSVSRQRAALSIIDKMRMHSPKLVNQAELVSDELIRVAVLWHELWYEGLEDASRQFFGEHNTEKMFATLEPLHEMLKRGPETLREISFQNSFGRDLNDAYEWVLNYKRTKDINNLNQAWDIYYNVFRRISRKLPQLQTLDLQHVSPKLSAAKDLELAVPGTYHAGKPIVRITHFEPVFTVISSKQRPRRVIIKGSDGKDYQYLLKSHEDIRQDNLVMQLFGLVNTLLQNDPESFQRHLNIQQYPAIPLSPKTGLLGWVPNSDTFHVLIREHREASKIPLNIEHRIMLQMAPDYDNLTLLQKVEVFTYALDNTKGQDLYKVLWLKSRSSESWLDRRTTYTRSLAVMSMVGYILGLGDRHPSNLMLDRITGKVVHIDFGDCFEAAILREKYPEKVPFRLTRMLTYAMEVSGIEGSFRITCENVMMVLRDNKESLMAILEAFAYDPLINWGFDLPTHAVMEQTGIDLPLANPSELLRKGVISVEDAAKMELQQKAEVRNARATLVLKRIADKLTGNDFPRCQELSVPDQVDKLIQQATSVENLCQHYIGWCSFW

| stoichiometry N | Substance |
| --- | --- |
| 1 | Kluyveromyces marxianus Lst8 (KmLst8), full-length (natural protein) |
| 2 | Kluyveromyces marxianus Tor (KmTor), full-length |
